Target: AMDHD1 (UniProt Q96NU7)
Test: co-immunoprecipitation, western blot
Conditions: sites S464,S465,S467

| Substance | binding against the reference (reference: wild-type SMAD3) | binding against the reference (reference: wild-type SMAD2) |
| --- | --- | --- |
| SMAD3 (from UniProt P84022) SMAD3-A (three C-terminal serines to alanine) | lost | – |
| SMAD2 (from UniProt Q15796) SMAD2-A (S464A/S465A/S467A) | – | lost |
